The data set in a line: yeast display, Sf9 membrane polyspecificity reagent, FACS + sequencing; frameworks hold sequencing errors. Put shortly:
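Nanobodies came from a synthetic yeast display library in Saccharomyces cerevisiae BJ5465, induced with galactose for 36–48 hours and stained for 1 hour at 4 °C with 10% biotinylated, detergent-solubilized Sf9 membrane reagent. Cells were enriched on streptavidin microbeads and then FACS-sorted, with low and high (top ~1%) gates set on anti-HA fluorescence for expression and streptavidin fluorescence for reagent binding. Each polyreactivity label reflects the gate a clone came from. Genes were amplified by colony PCR, sequenced by MiSeq 2 × 250 and filtered by CDR length.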
With “QVQLVESGGGLVQAAGSLRLSCAASGSIFTYYAKGCYRQATRKERELVATINRIGGNTYDADSVKGRFTLSSDNAKNTVYLQMNRLKPEDNAVYYCAAKPTYRGYGYGSWGQGTQVTVSS”, the “polyreactivity (PSR sort gate)” value is “low polyreactivity”.

On to “QVQLVESGGGLVQAAGSLRLSCAASGSTFGYNTMGWYRQAPGKERELVAGITYSGGRTYYADSVKGRFTISRDNAKNTVYLQMNSLKPADTAVYYCAALYGRGGYRNQPKSTTGMDYWGQGTQVTVSS”, for which the “polyreactivity (PSR sort gate)” value is recorded as “high polyreactivity”.

For the sequence “QVQLVESGGGLVQAAGSLRLSCAASGSTFQYYAMGWYRQAPGKERELVAAISASVDTTFYADSVKGRFTISRDNAKNTVYLQMNSLKPEDTAVYYCAKRYVDPLGSGTHGSWGQGTQVTVSS”, the “polyreactivity (PSR sort gate)” value is “low polyreactivity”.

In the case of “QVQLVESGGGLVQAAGSLRLSCAASGYTSSVYAMGWYIQAHGKERELVAAISADGGSTYYADSVKGRFTISRDNAKNTVYLQMNSLKPEDTAVYYCAKYTYPYTPYSWWYDYWGQGTQVTVSS”, the “polyreactivity (PSR sort gate)” value is “low polyreactivity”.

Regarding “QVQLVESGGGLVQAAGSVRLSCAASGITFTQYAMGRYRHAPGKESECVAGITFSGSSTYYADSVKGRFTISRDNSKNTVYLQMNSLKPEDTAVYYCAAESWYKYIYGYPRLFDYWGQATQVTVSS”, the “polyreactivity (PSR sort gate)” value is “low polyreactivity”.

Regarding “QVQLVESGGGLVQAARTLRISCAASGYIFQYNSMRWYRPAPGKERELVAPSRYRGTSTYYADSVKGRFTISRDNAKNTDYSQMNRLKPEDTAVYYCAADSVQGRGFFGYGYWGQGTHVTVSS”, the “polyreactivity (PSR sort gate)” value was “high polyreactivity”.

Consider “QVQLVESGGGLVQAEGSLRLSCAASGIIFFHNAMGWYRQAPGKERELVATISRSGGSTYYADSVKGRFTISRDNAKNTVYLQMNSLKPEDTAVYYCAARQSIFYSWTGVEYYYWGQGTQVTVSS”, for which the “polyreactivity (PSR sort gate)” value is recorded as “low polyreactivity”.

Regarding “QVQLVESGGGLVQAEGSLRLSCAASGSTLLYAMGWYRQAPGKERELVAAISIGDSTNYADSVKGRFTISRDNAKNTVYLQMNSLKPEDTAVYYCNADQGSNYYWGQGTQVTVSS”, the “polyreactivity (PSR sort gate)” value was “low polyreactivity”.

For the sequence “QVQLVESGGGLVQAGASHRLSCAASGRIFGGYAMGSDRQAPGKERELVAAISSRGGSTYYADSVKGRFTISRDNAKNTVYLLMNSLKPEETAVYYCAADGRVKGWGQGTQVTVSS”, the “polyreactivity (PSR sort gate)” value is given as “high polyreactivity”.

“QVQLVESGGGLVQAGASLRLICDASGSIFPYNAMGWYRQAPGKERELVAVITSSGGSTYYADSVKGRFTISRDNAKNTVYLQLNSLKPEDTAVYYCAVLNHRVDSVLTRYYYWGQGTQVTVSS”: the “polyreactivity (PSR sort gate)” value is reported as “low polyreactivity”.

Turning to “QVQLVESGGGLVQAGASLRLSCAASASTFKGNAMGWYRQAPGKERELVAAINRSGTSTYYADSVKGRFTISRDNAKNSVYLQMNSLKPEDTAVYYCAKNYFGHRFDYWGQGTQVTVSS”, the “polyreactivity (PSR sort gate)” value is “high polyreactivity”.

As for “QVQLVESGGGLVQAGASLRLSCAASGFILYRYAMGWYRQAPGKERELVAAISRRGGSTYYADSVKGRFTISRDNAKNTVYLQMNSLKPEDTAVYYCAADARYTRYDYWGQGTQVTVSS”, the “polyreactivity (PSR sort gate)” value is given as “high polyreactivity”.

In the case of “QVQLVESGGGLVQAGASLRLSCAASGFTFTPYAMGWYRQAPGKEREMVAAISWGDGSTYYADSVKGRFTISRDNAKNTVYLQMNSLKPEDTAVYYCAADFDFYYDWIYYYWGQGTQVTVSS”, the “polyreactivity (PSR sort gate)” value is on record as “high polyreactivity”.

“QVQLVESGGGLVQAGASLRLSCAASGFTFYSYDMGWYRQAPGKERELVAVITERGSSTYYADSVKGRFTISRDNAKNTVYLQMNSLKPEDTAVYYCAAYSEYYGVYYWGQGTLVTVSS”: the “polyreactivity (PSR sort gate)” value was “low polyreactivity”.

For “QVQLVESGGGLVQAGASLRLSCAASGIIVTQYAMGWYRQAPGKESEIVATFSSGGARTYYADSVKGRFTISRDNAKNTVYLQMKSQKPEDTAVYYCDARRYRGYSPPYDYCGQGTQVTVSS”, the “polyreactivity (PSR sort gate)” value is recorded as “high polyreactivity”.

On to “QVQLVESGGGLVQAGASLRLSCAASGITFVHYAMGWYRQAPWKEREFVAAITKGGGSTSYADSVKGRFTISRDNAKNTVYLQMNSLKPEDTAVDYCAKRYWGTKYGITARFDYWGQGTQVTVSS”, for which the “polyreactivity (PSR sort gate)” value is recorded as “high polyreactivity”.

Take “QVQLVESGGGLVQAGASLRLSCAASGNILRGYAMRWYRQAPGKERELVAAINRGGGSTYYADSVKVRFTISRDNAKNTVYLQMNSLKPEDTAVYYCAARYPHRGYTFDYLGQGTQVTVSS”: the “polyreactivity (PSR sort gate)” value is reported as “low polyreactivity”.

As to “QVQLVESGGGLVQAGASLRLSCAASGNTFIHNAMGRYRQAPGKERELVAAINWSGGRTYYADSVKGRFTISRDNAKNTVYLQMNCLKPEDTAVYYCARGTRWTYNMYYWGQGTQVTVSS”, the “polyreactivity (PSR sort gate)” value is on record as “high polyreactivity”.

With “QVQLVESGGGLVQAGASLRLSCAASGRIFSFYAMGWYRQAPGKERELVAAISSGGNTYYADSVKGRFTISRDNAKNTVYLQMNSLKPEDTAVYYCATGYRKLSSRYGYWGQGTQVTVSS”, the “polyreactivity (PSR sort gate)” value is listed as “high polyreactivity”.

With “QVQLVESGGGLVQAGASLRLSCAASGRISYYYTMGWYRQAPGKERELVAAISWSGGTTYYADSVKGRFTISRDNAKNTVYLQMNSLKPDDTAVYYCAAREYYTDVHGTRRYDYWGQGTQVTVSS”, the “polyreactivity (PSR sort gate)” value was “low polyreactivity”.

As for “QVQLVESGGGLVQAGASLRLSCAASGRTFGKYAMGWYRQAPGKERELVAAITTRVVITYYADSVKGRFTISRDTAKITVYLQMNSLKPEDSADYYCAAVSIYWGQGTQVTVSS”, the “polyreactivity (PSR sort gate)” value is “low polyreactivity”.

On to “QVQLVESGGGLVQAGASLRLSCAASGRTFPGYAMGWSRQAPGKERELVAAITYRGGSTYYADSVKGRFTISRDNAKNTVYLQMNSLKPEDTAVYYCNARHSRSRFYYWGQGTQVTVSS”, for which the “polyreactivity (PSR sort gate)” value was “high polyreactivity”.

With “QVQLVESGGGLVQAGASLRLSCAASGSILVDNAMGSYRQAPWKERELVARITGSGGSTYYADSVKGRCTISRDNAKNTVYLQMNSLKPEDTAVYYCAARRVNAGWTYGLRGNYWGQGSQVTVSS”, the “polyreactivity (PSR sort gate)” value is recorded as “low polyreactivity”.

Regarding “QVQLVESGGGLVQAGASLRLSCAASGSTFPYYAMGWYRQAPGKERELVAAISGSGGTTYYADSVKGRFTISRDNAKNTVYLQMNSLKPEDTEVYYCAVDIGVGYGYYYWGQGTQVTVSS”, the “polyreactivity (PSR sort gate)” value is listed as “low polyreactivity”.

Consider “QVQLVESGGGLVQAGASLRLSCAPSGSIFLAYAMGWYRQAPGKEREFVAALSFTDGSTYYADSVKGRFTISRDNAKNTVYLQMNSLKPEDTAVYYCNKGASPDDYDYWGQGTQVTVSS”, for which the “polyreactivity (PSR sort gate)” value is reported as “low polyreactivity”.

Consider “QVQLVESGGGLVQAGASLRLSSAASGRTFRRNAKRWYRQAAGKERELVAFITGTGSTTYYADSVKGRFTISRDNAKNTVYLQMYSLKPEDTAVYYCAASSKYQDYWGQGTQVTVSS”, for which the “polyreactivity (PSR sort gate)” value is reported as “high polyreactivity”.

As for “QVQLVESGGGLVQAGASLRLSSAASGSTFKYYTMGWYRQAPGKERELVAAISFSGARTYYADSVKGRFTISRDNAKNTVYLQMNCLIPEDTAVYYCAKASSYSRRYEYWGQGTQVTVSS”, the “polyreactivity (PSR sort gate)” value is recorded as “high polyreactivity”.

For “QVQLVESGGGLVQAGASLSLSCAASGFTFEDYAMGWYRQAPGKERELVAAISSRGTSTYYADSVKGRFTISRDNAKNTVYLQMNSLKREDTAVYYCNIRGWYPYGYWGQGTQVTVSS”, the “polyreactivity (PSR sort gate)” value is given as “high polyreactivity”.

On to “QVQLVESGGGLVQAGASRRLSCAASGSNFASYAMGWYRQAPGKERELVAAITRRGGSTDYADSVKGRFTISRDNEKYTVDLHMNLLKPEDTAVYYCPTYSYPERTGGQRTHYYWGQGTQVTVSS”, for which the “polyreactivity (PSR sort gate)” value is “high polyreactivity”.

For the sequence “QVQLVESGGGLVQAGCILRLSCAASGRTFHLNAMGWYIQAPGKEREMVAAITNSGGRTSYADSVKVRFTISRDNAKNTVYIQMNSLKPEDTAVYYFNVEVTYSSGKYYYWGQGTQVTVSS”, the “polyreactivity (PSR sort gate)” value is recorded as “low polyreactivity”.

As to “QVQLVESGGGLVQAGCRLRLSCAASGSIIYRKAMGWYRQAPGKERQLVAAISARGGRTNYAVSVKGRFTISRDNAKNTVYLQLYSLNPEDTAVYYCNTADSWYHRSQAYDYWGQGTQVTVSS”, the “polyreactivity (PSR sort gate)” value is recorded as “high polyreactivity”.

In the case of “QVQLVESGGGLVQAGCSHSLSCAASGLTFDVYTMGWYRQAPGKERELVATISQTYYADSVKGRFTISRDNAKNTVYLQMNSLKPEDTAVYYCAANGFKAQYRDIVYDYGYWGEGTQVTVSS”, the “polyreactivity (PSR sort gate)” value was “low polyreactivity”.

For “QVQLVESGGGLVQAGCSLRLICAASGLTFSRYTMGWYRQAPGKERELVAAISLSGGRTYYADSVKGRFTISRDNAKNTVYLQMNSLKPEDTAVYYCNARGTYHGQYYWGEGTQVTVSS”, the “polyreactivity (PSR sort gate)” value is “high polyreactivity”.

As to “QVQLVESGGGLVQAGCSLRLICAASGSISYHNAKGWYRQAPAKEREWVAANSGDGDSTYYADSVKVRFTISRDNAKHTVYLQMNTLKPEDSAVYYSAAEPTVYFSDFVLFPSDFWGQGTQVTVSS”, the “polyreactivity (PSR sort gate)” value was “low polyreactivity”.

As to “QVQLVESGGGLVQAGCSLRLSCAASGFIFRLYTMGWYRQAPGKERELVARITRGDSTIYADSVKGRFTISRDNAKNTVYLQMNSLKPEDTAVYYCAKLHRGLPYYSFYRGYYYWGQGTQVTVSS”, the “polyreactivity (PSR sort gate)” value was “low polyreactivity”.

On to “QVQLVESGGGLVQAGCSLRLSCAASGFIFWENGLGWYRQAPGKERELVAAISSGGGRTYYADSVKGRFTISRDNAKHTVYLQMNSLKPEDTAVYYCNRARYYREFDFWGQGTQVTVSS”, for which the “polyreactivity (PSR sort gate)” value is on record as “high polyreactivity”.

On to “QVQLVESGGGLVQAGCSLRLSCAASGFIFWLYAMGWYRQAPGKERELVASINWSGGDTYYADSVKGRFTISRDNAKNTVYLQMNSLKPEDTAVYYCNAIVLDSKSSFDYWGQGTQVTVSS”, for which the “polyreactivity (PSR sort gate)” value was “low polyreactivity”.

Regarding “QVQLVESGGGLVQAGCSLRLSCAASGFTFGSYAMGWYRQAPWKEREFVAAIRRSGSSTYYADSVKGRFTISRDNAKNTVYLQMNSLKPEDTAVYFCAADVYRRLRRYRYYYLGQGTQVTVSS”, the “polyreactivity (PSR sort gate)” value is on record as “low polyreactivity”.

Consider “QVQLVESGGGLVQAGCSLRLSCAASGITFAWYAMGWYRQAPGKERELVAAIDDRGGSTYYADSVKGRFTISRDNAKNTVYLQMNSLKPEDTAVYYCNADTPSYEPYRLDYWGQGTQVTVSS”, for which the “polyreactivity (PSR sort gate)” value is “low polyreactivity”.

As to “QVQLVESGGGLVQAGCSLRLSCAASGRIFPRNVMGWYRQAPGKERELVAAISSRGTRTYYADSVKGRFTISRDNAKNTVYLQMNSLKPEDTAVYYCAADGPYEGYDYWGLGTQVTVSS”, the “polyreactivity (PSR sort gate)” value is “high polyreactivity”.

In the case of “QVQLVESGGGLVQAGCSLRLSCAASGRIFQTNVMGWYRQAPGKDRELVAAISYRGGTTYYADSVKGRFTISRDNAKNTVYLQMNSLKPEDPAVYYCAALHYRIRRTGMDYWGQGTQVTVSS”, the “polyreactivity (PSR sort gate)” value is “low polyreactivity”.

The values above are taken from the nanobody polyreactivity screen of Harvey et al. (2022).
